Target: AGO2 (UniProt Q9UKV8)
Assay: MST
Details: MST: labeled protein 5-150 nM, ligand 1E-10 to 1E-5 M, 5-15 min, buffer and temperature not stated, pull-down: 150 mM NaCl, 50 mM Tris pH 7.4, 1% Triton X-100 …

AGO2, sequence (Q9UKV8 whole entry): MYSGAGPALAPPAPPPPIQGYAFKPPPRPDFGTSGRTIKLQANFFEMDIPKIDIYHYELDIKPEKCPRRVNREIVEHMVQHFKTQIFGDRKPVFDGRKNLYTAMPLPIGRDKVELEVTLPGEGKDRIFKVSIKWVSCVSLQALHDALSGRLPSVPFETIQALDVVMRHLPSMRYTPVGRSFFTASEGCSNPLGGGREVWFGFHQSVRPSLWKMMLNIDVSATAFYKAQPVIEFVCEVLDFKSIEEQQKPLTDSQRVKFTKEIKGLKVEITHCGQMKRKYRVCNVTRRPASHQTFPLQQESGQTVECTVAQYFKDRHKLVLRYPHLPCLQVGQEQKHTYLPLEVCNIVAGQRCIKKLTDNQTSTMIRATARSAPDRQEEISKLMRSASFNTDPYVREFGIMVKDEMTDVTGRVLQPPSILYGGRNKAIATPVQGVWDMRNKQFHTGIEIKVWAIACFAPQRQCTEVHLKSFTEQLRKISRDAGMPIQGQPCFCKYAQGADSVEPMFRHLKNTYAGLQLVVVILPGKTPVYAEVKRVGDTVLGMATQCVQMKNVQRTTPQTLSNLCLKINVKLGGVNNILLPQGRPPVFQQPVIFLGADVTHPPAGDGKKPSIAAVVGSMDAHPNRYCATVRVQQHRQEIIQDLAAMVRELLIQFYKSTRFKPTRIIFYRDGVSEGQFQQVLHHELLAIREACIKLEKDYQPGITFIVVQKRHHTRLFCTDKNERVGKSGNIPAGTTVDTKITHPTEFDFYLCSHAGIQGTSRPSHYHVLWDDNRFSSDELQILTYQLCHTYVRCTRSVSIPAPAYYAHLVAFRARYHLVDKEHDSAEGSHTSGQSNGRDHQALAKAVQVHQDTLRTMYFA

5'ppp-dsRNA
Kd (5'-triphosphate): 2.2 µM

5'ppp-dsRNA Control (dsRNA control)
Kd (no 5'-triphosphate): 2.2 µM

3p-hpRNA (5'ppp hairpin RNA)
Kd (no competitor, 5'-triphosphate): 0.205 µM

Reference: paper PMC12424427
